Assay results as given in patent US20260000752A1 (AKSTON BIOSCIENCES, published 2026).

B1: recombinant human Fc(gamma)RIIb, biotinylated (R&D Systems) (receptor)
chain: APPKAVLKLEPQWINVLQEDSVTLTCRGTHSPESDSIQWFHNGNLIPTHTQPSYRFKANNNDSGEYTCQTGQTSLSDPVHLTVLSEWLVLQTPHLEFQEGETIVLRCHSWKDKPLVKVTFFQNGKSKKFSRSDPNFSIPQANHSHSGDYHCTGNIGYTLYSSKPVTITVQAP
B2: recombinant human Fc(gamma)RIIa, biotinylated (R&D Systems) (receptor)
chain: AAPPKAVLKLEPPWINVLQEDSVTLTCQGARSPESDSIQWFHNGNLIPTHTQPSYRFKANNNDSGEYTCQTGQTSLSDPVHLTVLSEWLVLQTPHLEFQEGETIMLRCHSWKDKPLVKVTFFQNGKSQKFSHLDPTFSIPQANHSHSGDYHCTGNIGYTLFSSKPVTITVQVPSMGSSSPMGI
B3: recombinant human Fc(gamma)RI, biotinylated (R&D Systems) (receptor, UniProt P12314 16-288, looked up)
chain: QVDTTKAVITLQPPWVSVFQEETVTLHCEVLHLPGSSSTQWFLNGTATQTSTPSYRITSASVNDSGEYRCQRGLSGRSDPIQLEIHRGWLLLQVSSRVFTEGEPLALRCHAWKDKLVYNVLYYRNGKAFKFFHWNSNLTILKTNISHNGTYHCSGMGKHRYTSAGISVTVKELFPAPVLNASVTSPLLEGNLVTLSCETKLLLQRPGLQLYFSFYMGSKTLRGRNTSSEYQILTARREDSGLYWCEAATEDGNVLKRSPELELQVLGLQLPTP
B4: human Fc(gamma)RIIIb (receptor)
chain: GMRTEDLPKAVVFLEPQWYSVLEKDSVTLKCQGAYSPEDNSTQWFHNENLISSQASSYFIDAATVNDSGEYRCQTNLSTLSDPVQLEVHIGWLLLQAPRWVFKEEDPIHLRCHSWKNTALHKVTYLQNGKDRKYFHHNSDFHIPKATLKDSGSYFCRGLVGSKNVSSETVNITITQGLAVSTIS

These binders were tested against SARS-CoV-2-RBD-hIgG-Fc fusion protein of SEQ ID NO: 19.
B1 gave an EC50 of 2.05 µg/mL. For B2, the EC50 was 2.28 µg/mL. Work on B3 yielded an EC50 of 0.0339 µg/mL. With B4 the EC50 was 11.7 µg/mL.
